Laboratory results taken from the nanobody polyreactivity screen of Harvey et al. (2022).

Assay: yeast display, Sf9 membrane polyspecificity reagent, FACS + sequencing; frameworks hold sequencing errors
Summary of the method: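 Galactose-induced (36–48 hours) yeast carrying a synthetic nanobody display library were exposed to 10% biotinylated, detergent-solubilized Sf9 membrane reagent at 4 °C for 1 hour. FACS followed streptavidin microbead enrichment, using low and high (top ~1%) gates for expression (anti-HA) and reagent binding (streptavidin). Colony PCR, MiSeq 2 × 250 sequencing and CDR-length filtering followed. Labels for polyreactivity reflect the gate of origin.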

Sequence	polyreactivity (PSR sort gate)
QVQLVESGGGLVQAGGSLRLSCAASGSIFGLYAMGWYRQAPGKERELVAAINWNGGDTYYADSVKGRFTISRDYAKNTVYLQMNSLIAVDNAVYYCAAYPRDPYKEYDYLGQGTQVTVSS	low polyreactivity
QVQLVESGGGLVQAGGSLRLSCAASGSIFGLYAMGWYRQAPGKERELVATITSGTNTYYADSVKGRFTISRDNAKNTVYLQMNSLKAEDTAVYYCAKSYIAWDGRTFEEMNYWGQGTLVTVSS	low polyreactivity
QVQLVESGGGLVQAGGSLRLSCAASGSIFGLYAMGWYRQAPGKERELVAVITYSVGTTYYADSVKGRFTISRDNAKNTVYLQMNSLKPEDTAVYYCAADLYWYYPWSAYYGEYDYWGQGTQVTVSS	low polyreactivity
QVQLVESGGGLVQAGGSLRLSCAASGSIFGLYAMGWYRQAPGKEREVFADITIGGSTYYADSVKGRFTISRDNAKNTVYLQMNSLKPEDTAVYYCASRPGSWYPSVPSYNYWGQGTQVTVSS	low polyreactivity
QVQLVESGGGLVQAGGSLRLSCAASGSIFGNNAMGWYRQAPGKERELVAAITSGGSTTYADSVKGRFTISRDNAKNTVYLLMNSLKPEDTAVYYCAATPVWGFVWEYNYWGQGTQVTVSS	low polyreactivity
QVQLVESGGGLVQAGGSLRLSCAASGSIFGNNVMGWYRQAPGKERELVAAITSGTSTYYADSVKGRFTISRDNAKNTVYLQMNSLKPEDTAVYYCAALWSSRYVVHPQWYDYWGQGTQVTVSS	low polyreactivity
QVQLVESGGGLVQAGGSLRLSCAASGSIFGNYVMGWYRPAPGKERELVAAISWSGGTNYADSVKGRFTISRDNAKNTVYLQMNSLKPEDTAVYYCAALSVWSYYTYYYWGQGTQVTVSS	high polyreactivity
QVQLVESGGGLVQAGGSLRLSCAASGSIFGPNAMGWYRQAPGKERELGAAISWRGGSTYYADSVKGRFTISRDTAKNTVYLQMNSLKPEDTAVYYCNKYLTWAEGLPGYDYWGQGTQVTVSS	high polyreactivity
QVQLVESGGGLVQAGGSLRLSCAASGSIFGPYVKGWYRQAPGTERELVASITSSGGSTYYADTVKGRFTISRDNAKNTVYIQMNSLKPEDTAVYYCNAVRFTPTNSHRYYWGQGTQVTVSS	high polyreactivity
QVQLVESGGGLVQAGGSLRLSCAASGSIFGRNAMGWYRQAPGKERELVAAIRTRGGSTYYADSVKGRFTNSRDIAKNSVYLQMNSLKPEDTAVYYCAAPGGGKEVDYWGQGTQVTVSS	low polyreactivity
QVQLVESGGGLVQAGGSLRLSCAASGSIFGRNAMGWYRQAPGKERELVAAITWSGDSTYYADSVKGRFTISRDNAKNSVYLQMNSLKPEVTAVYYCAVKSYVPYLSYIYSFGYWGQGTQVTVSS	low polyreactivity
QVQLVESGGGLVQAGGSLRLSCAASGSIFGRNAMGWYRQAPGKERELVADIWNGGSTYYADAVKGRFTISRDNAKNTVYLQMNSLKPEDTAVYYCNADADDVGRFGGYIKYDYWGQGTQVTVSS	low polyreactivity
QVQLVESGGGLVQAGGSLRLSCAASGSIFGRNDMGWYRQAAGKERELVAAISKRGGRTYYADSVKGRFTISRDNAKNTVYLQMNSLKPEDTAVYYCAADQPTLAYPGGYSAGMDYWGQGTQVTVSS	high polyreactivity
QVQLVESGGGLVQAGGSLRLSCAASGSIFGRNDMGWYRQAPGKERELVAAISGDTTTNYADSVKGRFTISRDNAKNTVYLQMNSLKPEDTAVYYCAAKYGYRRGTVRGYTRVYYWGQGTQVTVSS	high polyreactivity
QVQLVESGGGLVQAGGSLRLSCAASGSIFGRNVMGWYRQAPGKERELVAAISEGGGRTYYADSVKGRFTISRDNAKNTVYLQMNSLKPEDTAVYYCAAAYFSSGYKYYYWGQGTQVTVSS	high polyreactivity
QVQLVESGGGLVQAGGSLRLSCAASGSIFGRYAMGWYRQAPGKERELVAAISANGGSTYYADSVKGRFTISRDNAKNTVYLQMNSLKPEDTAVYYCAAGSTRGYKLGYWGQGTQVTVSS	high polyreactivity
QVQLVESGGGLVQAGGSLRLSCAASGSIFGSNAMGWYRQALGKERELVAAISDSTGSTYYADSVKGRFTISRDNAKNTVYLQMNSLKPEDTAVYYCDARTYYYRWHIYDYWGQGSQVTVSS	low polyreactivity
QVQLVESGGGLVQAGGSLRLSCAASGSIFGSNGMGWSRQAPGKERELVAAISSGDSTNYADSVKGRFTISRDNAKNTVYLQMNSLKPEDTAVYSCERWGLGDYWGQGTQVTVSS	low polyreactivity
QVQLVESGGGLVQAGGSLRLSCAASGSIFGSYAMGWYRQAPGKERELVAAISYRGGRTYYADSVKGRFTISRDNAKNTVYLQMNSLKPEDTAVYYCNARARNSPPYDYWGQGTQVTVSS	high polyreactivity
QVQLVESGGGLVQAGGSLRLSCAASGSIFGSYAMGWYTQAPGKERELVAAITRAGSTNYADSVKGRFTISRDNAKNTVYLQINSLKPEDTAVFYCAVRPGFGRSLWYGYWGQGTQVTVSS	low polyreactivity
QVQLVESGGGLVQAGGSLRLSCAASGSIFGTNAMGWYRQAPGKERELLAAISLSTGSTYYADSVKGRITISRDYAKNTVYLQMNSLKPEDTAVYYCAVRHRYTRAYWGRDYWGQGTQVTVSS	low polyreactivity
QVQLVESGGGLVQAGGSLRLSCAASGSIFGTNAMGWYRQAPGKERELVAAIDGGSTTYYADSVKGRFTISRDNAKNTVYLQMNSLKPEDTAVYYCAADGTRYLNDEGYAGYEYWGQGTQVTVSS	low polyreactivity

Sequence	polyreactivity (PSR sort gate)
QVQLVESGGGLVQAGGSLRLSCAASGSIFGTNAMGWYRQAPGKERELVAAISFSGGDTYYADSVKGRFTISRDNAKKTVYLQMNRLKPEDTAVYYCAAEVPDTDAYGYWGQGTQVTVSS	low polyreactivity
QVQLVESGGGLVQAGGSLRLSCAASGSIFGTYAMGWYRQALGKERELVASIRFNGRTFYADSVKGRFTISRDNAKNTVYLQMNSLKPEDTAVYYCAAQTWYGFPNYYWGQGTQVTVSS	high polyreactivity
QVQLVESGGGLVQAGGSLRLSCAASGSIFGTYAMGWYRQAPGKEREFVADISGIGTSTYYADSVKGRFTISRDNAKNTVYLQMNSLKPEDTAVYYCAACYPPLRGYYYWGQGTQVTVSS	low polyreactivity
QVQLVESGGGLVQAGGSLRLSCAASGSIFGTYAMGWYRQAPGKERELVARISGGGSTYYADSVKGRFTISRDNAKNTVYLQMNSLKPEDTAVYYCNVRKWAYWSHAIIYNYWGQGTQVTVSS	high polyreactivity
QVQLVESGGGLVQAGGSLRLSCAASGSIFGVNAMGWYRQAPGKERELVAAISSSTGRTYYADSVKGRFTISRDNAKNTVYLQMNSLKPEDTAVYYCAADFTSYRRGWTYGYWGQGTQVTVSS	high polyreactivity
QVQLVESGGGLVQAGGSLRLSCAASGSIFGVNAMGWYRQAPGKERELVASITGGDSTNYADSVKGRFTISRDNAKNTVYLQMNSLKPEDTAGYYCAKDHYYRYEEGDYWGQGTQVTVSS	low polyreactivity
QVQLVESGGGLVQAGGSLRLSCAASGSIFGVYAMGWYRQAPGKERELVAAIDSGSSTDYADSVKGRFTISRDNAKNTVYLQMNSLKPEDTAVYYCYPLDLAPVDYWGQGTQVTVSS	low polyreactivity
QVQLVESGGGLVQAGGSLRLSCAASGSIFGWNAMGWYRQAPGKERELVAAISSGGSTYYADSVKGRFTISRDNAKNTVYLQMNSLKPQDTAVYYCNAFFQYYDYWGQGTQVTVSS	low polyreactivity
QVQLVESGGGLVQAGGSLRLSCAASGSIFGWYAMGWYRQAPGKERELVAAISWDGGDTYYADSVKGRFTISRDNAKNTVYLQMNSLKPEDTAVYYCAAELGYYDYGSYYSYDYWGQGTQVTVSS	high polyreactivity
QVQLVESGGGLVQAGGSLRLSCAASGSIFGWYGMGWYRQAPGKERELVAAINWGGTNTYYADSVKGRFTISRDNAKNTVYLQMISLKPEDTAVYSCNADIPRRPNRHYLYDYWGQATQVTVSS	low polyreactivity
QVQLVESGGGLVQAGGSLRLSCAASGSIFGWYVMGWYRQAPGKERELVAAISSGGSTNYADSVKGRFTISRDNAKNTVYLQMNSLKPEDTAVYYCAKRFRRTPYRNTYKPYDRYYWGQGTQVTVSS	high polyreactivity
QVQLVESGGGLVQAGGSLRLSCAASGSIFGYNAMGWYRQAPGKEREFVAAITSGGSTYYADSVKGRFTISRDNAKNTVYLQMNSLKPEDTAVYYCRRRNVDSTRRYDYWGQGTQVTVSS	high polyreactivity
QVQLVESGGGLVQAGGSLRLSCAASGSIFGYNAMGWYRQAPGKERELVAAINYNGGRTYYADSVKGRFTISRDNAKNTVYLQMNSLKPEDTAVYYCNKVYLRTSGRDYWGQGTQVTVSS	high polyreactivity
QVQLVESGGGLVQAGGSLRLSCAASGSIFGYNAMGWYRQAPGKERELVAAISSSGSSTYADSVKGRFTISRDNAKNTVYLQMNSLKPEDTAVYYCNKTTLLTVEYDYWGQGTQVTVSS	low polyreactivity
QVQLVESGGGLVQAGGSLRLSCAASGSIFGYNAMGWYRQAPGKERELVAAISYSGGRTYYADSVKGRFTISRDNAKHTVYFQKNRLKPEDTAVYYCAKYKVGYVPSGYRYDSWGQGTQVTVSS	high polyreactivity
QVQLVESGGGLVQAGGSLRLSCAASGSIFGYNTMGWYRQAPGKERELVAAISRGGSTNYADSVKGRFTISRDNAKNTVYLQMNSLKPEDTAVYYCAKRRWRQTTYSKGYDYWGQGTQVTVSS	high polyreactivity
QVQLVESGGGLVQAGGSLRLSCAASGSIFGYNVMGWYRQAPGKERDLVAAITYSGGSTYYADSVKGRFTISRDNAKNTVYLQMNSLKPEDTAVYYCAKVTGRRFPAYGYDHWGQGTQVTVSS	high polyreactivity
QVQLVESGGGLVQAGGSLRLSCAASGSIFGYNVMGWYRQAPGKERELVAAISSSTGSTNYADSVKGRFTISRDNAKNTVYLQMNSLKPEDTAVYYCAVDPYVHWTTKLYDYWGQGSQVTVSS	low polyreactivity
QVQLVESGGGLVQAGGSLRLSCAASGSIFGYYALGWSRQAPGKERELVAVITWNTGNTYYADSVKGRFTISRDNAKNTVYLEMNSLKPEDTAVYYCAADQTGWGDTYDYWGQGTQVTVSS	low polyreactivity
QVQLVESGGGLVQAGGSLRLSCAASGSIFGYYAMGWYRQAPGKEREFVAAIRSSGGSTYYADSVKGRFTISRDNAKNTVYLQMNSLKPEDTAVYYCAAGGYPTFFKYGYWGQGTQVTVSS	high polyreactivity
QVQLVESGGGLVQAGGSLRLSCAASGSIFGYYAMGWYRQAPGKEREFVAAISVSGSRTYYADSVKGRFTISRDNAKNTVYLQMNSLKPEYTAVYYCAARVDYRHRYYYWGQGTLVTVSS	high polyreactivity
